{"source": "patent CN117050178A", "about": "(BEIJING BIOSYSTEMS BIOLOGICAL TECH CO LTD, dated 2023)", "key": {"人IL-7蛋白": {"target": "T1, 人IL-7蛋白 (human, UniProt P13232 26-177)", "T1 construct": "also called 人源IL-7", "T1 sequence (looked up)": "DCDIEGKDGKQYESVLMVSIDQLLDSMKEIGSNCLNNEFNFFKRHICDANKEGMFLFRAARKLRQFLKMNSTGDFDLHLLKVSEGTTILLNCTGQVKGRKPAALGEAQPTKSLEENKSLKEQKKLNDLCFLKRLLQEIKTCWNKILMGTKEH", "assay": "indirect ELISA, cell supernatant on coated human IL-7 (2 μg/mL)"}, "人源IL-2蛋白": {"target": "人源IL-2蛋白 (human, UniProt P60568 21-153)", "sequence (P60568 21-153 limits assumed)": "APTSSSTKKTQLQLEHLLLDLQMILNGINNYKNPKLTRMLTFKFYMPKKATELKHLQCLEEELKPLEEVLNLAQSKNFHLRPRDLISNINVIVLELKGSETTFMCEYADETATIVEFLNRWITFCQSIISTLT", "assay": "indirect ELISA, cell supernatant on coated cytokine"}, "人源IL-15蛋白": {"target": "人源IL-15蛋白 (human, UniProt P40933 49-162)", "sequence (P40933 49-162 limits assumed)": "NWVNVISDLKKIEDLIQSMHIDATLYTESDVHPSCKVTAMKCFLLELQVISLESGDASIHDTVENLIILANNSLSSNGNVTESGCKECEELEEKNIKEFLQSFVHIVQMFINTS", "assay": "indirect ELISA, cell supernatant on coated cytokine"}, "人源TNF-alpha蛋白": {"target": "人源TNF-alpha蛋白 (human, UniProt P01375 77-233)", "sequence (P01375 77-233 limits assumed)": "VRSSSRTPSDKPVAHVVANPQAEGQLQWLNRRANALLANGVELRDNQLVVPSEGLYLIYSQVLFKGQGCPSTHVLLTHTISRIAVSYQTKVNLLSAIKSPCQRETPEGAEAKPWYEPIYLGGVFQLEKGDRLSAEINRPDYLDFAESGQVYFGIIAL", "assay": "indirect ELISA, cell supernatant on coated cytokine"}, "人源IL-21蛋白": {"target": "人源IL-21蛋白 (human, UniProt Q9HBE4 32-162, limits assumed)", "sequence (Q9HBE4 32-162 limits assumed)": "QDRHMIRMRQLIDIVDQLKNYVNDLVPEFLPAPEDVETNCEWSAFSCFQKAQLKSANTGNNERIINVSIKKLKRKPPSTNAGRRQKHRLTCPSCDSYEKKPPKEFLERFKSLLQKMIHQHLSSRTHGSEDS", "assay": "indirect ELISA, cell supernatant on coated cytokine"}, "人源IL-4蛋白": {"target": "T2, 人源IL-4蛋白 (human, UniProt P05112 25-153)", "T2 sequence (looked up)": "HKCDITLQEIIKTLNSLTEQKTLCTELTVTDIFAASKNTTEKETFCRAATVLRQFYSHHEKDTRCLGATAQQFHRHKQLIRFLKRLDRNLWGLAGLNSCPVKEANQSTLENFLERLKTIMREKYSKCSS", "assay": "indirect ELISA, cell supernatant on coated cytokine"}, "人源IL-6蛋白": {"target": "人源IL-6蛋白 (human, UniProt P05231 30-212)", "assay": "indirect ELISA, cell supernatant on coated cytokine"}, "人源GM-CSF蛋白": {"target": "人源GM-CSF蛋白 (human, UniProt P04141 18-144)", "sequence (P04141 18-144 limits assumed)": "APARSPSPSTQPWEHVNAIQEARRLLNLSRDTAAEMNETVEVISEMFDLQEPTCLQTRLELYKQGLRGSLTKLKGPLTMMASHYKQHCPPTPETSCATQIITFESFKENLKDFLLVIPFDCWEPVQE", "assay": "indirect ELISA, cell supernatant on coated cytokine"}, "人源IL-10蛋白": {"target": "人源IL-10蛋白 (human, UniProt P22301 19-178)", "sequence (P22301 19-178 limits assumed)": "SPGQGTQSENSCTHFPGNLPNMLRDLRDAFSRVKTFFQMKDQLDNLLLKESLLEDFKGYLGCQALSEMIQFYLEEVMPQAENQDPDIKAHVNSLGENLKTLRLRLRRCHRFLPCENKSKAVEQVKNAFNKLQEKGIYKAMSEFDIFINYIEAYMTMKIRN", "assay": "indirect ELISA, cell supernatant on coated cytokine"}}}
{"binder": "抗体8E8B10 (antibody, V domains shown, Mouse hybridoma monoclonal antibody; also called Clone 8E8B10; 克隆号8E8B10) VH: QVQLQQPGAELLRPGASVKLSCKTSGFTFTRYWINWVKQRPGQGLEWIGMIDPFDSETHYNQVFKDKATLTVDKSSSTAYMYMSSLTSEDSAVYYCARYFVYFDTVDFWGQGTSLTVSS VL: DVVMTQTPLSLPVSLGGQASISCRSGQSLVHSDGNTYLHWYLQRPGQSPKLLIYKVSNRFSGVPDRFSGSGSGTNFTLKISRVEAEDLGVYFCSQNTHVPYTFGGGTKLEMK", "values": [{"measurement": "binding result", "setting": "人IL-7蛋白", "result": "binds"}, {"measurement": "binding result", "setting": "人源IL-2蛋白", "result": "no binding (tested: antigen coated at 2 μg/mL)"}, {"measurement": "binding result", "setting": "人源IL-15蛋白", "result": "no binding (tested: antigen coated at 2 μg/mL)"}, {"measurement": "binding result", "setting": "人源TNF-alpha蛋白", "result": "no binding (tested: antigen coated at 2 μg/mL)"}, {"measurement": "binding result", "setting": "人源IL-21蛋白", "result": "no binding (tested: antigen coated at 2 μg/mL)"}, {"measurement": "binding result", "setting": "人源IL-4蛋白", "result": "no binding (tested: antigen coated at 2 μg/mL)"}, {"measurement": "binding result", "setting": "人源IL-6蛋白", "result": "no binding (tested: antigen coated at 2 μg/mL)"}, {"measurement": "binding result", "setting": "人源GM-CSF蛋白", "result": "no binding (tested: antigen coated at 2 μg/mL)"}, {"measurement": "binding result", "setting": "人源IL-10蛋白", "result": "no binding (tested: antigen coated at 2 μg/mL)"}]}
